From paper PMC6769508 come the findings set out here.

In assay [1] the target is SyKaiBDD, SyKaiB with Arg22 and Lys25 substituted with aspartate residues (Synechococcus elongatus PCC 7942) (UniProt Q79PF5).
Assay [2] concerns the target SyKaiB, wild-type KaiB of Synechococcus elongatus PCC 7942 (Synechococcus elongatus PCC 7942) (UniProt Q79PF5).

B1: SyKaiBDD, SyKaiB with Arg22 and Lys25 substituted with aspartate residues (natural protein)
chain: MSPRKTYILKLYVAGNTPNSVDALDTLKNILEVEFQGVYALKVIDVLKNPQLAEEDKILATPTLAKVLPLPVRRIIGDLSDREKVLIGLDLLYGELQDSDDF
In the case of B1, the period of the in vitro oscillation of the phosphorylated KaiC level (SyKaiA 1.5 µM, SyKaiC 3.4 µM, SyKaiBDD 4.2 µM, 30 °C) in assay [1] is 30.4 h.

B2: SyKaiB, wild-type KaiB of Synechococcus elongatus PCC 7942 (natural protein)
chain: MSPRKTYILKLYVAGNTPNSVRALKTLKNILEVEFQGVYALKVIDVLKNPQLAEEDKILATPTLAKVLPLPVRRIIGDLSDREKVLIGLDLLYGELQDSDDF
As to B2, the period of the in vitro oscillation of the phosphorylated KaiC level (SyKaiA 1.5 µM, SyKaiC 3.4 µM, SyKaiBWT 4.2 µM, 30 °C) in assay [2] stood at 23.2 h.
